Reference: US20120028912A1

Target: lysine-acetylated histone H4 peptide SGRGKGG-AcK-GLGK (Lys8 acetylated)
Assay: NMR titration, 15N-HSQC chemical shift changes against ligand concentration

B1: bromodomain of P/CAF (residues 719-832 of SEQ ID NO:2), Q92831 719-832 (protein)
chain: SKEPRDPDQLYSTLKSILQQVKSHQSAWPFMEPVKRTEAPGYYEVIRFPMDLKTMSERLKNRYYVSKKLFMADLQRVFTNCKEYNAAESEYYKCANILEKFFFSKIKEAGLIDK
**Q.** For B1, which Kd is on record?
**A.** Its Kd is 346 µM.
